From the nanobody polyreactivity screen of Harvey et al. (2022)

Test: yeast display, Sf9 membrane polyspecificity reagent, FACS + sequencing; frameworks hold sequencing errors
Procedure, shortened: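 A synthetic nanobody library was expressed on Saccharomyces cerevisiae BJ5465 by galactose induction for 36–48 hours. The library was stained for 1 hour at 4 °C with 10% biotinylated, detergent-solubilized Sf9 membrane reagent and enriched with streptavidin microbeads before FACS. Low and high (top ~1%) gates were set on anti-HA fluorescence for expression and streptavidin fluorescence for reagent binding, and each polyreactivity label reflects the gate of origin.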

| Sequence | polyreactivity (PSR sort gate) |
| --- | --- |
| QVQLVESGGGLVQAGGSLRLSCAASGSNFTLYAMGWYRPAPGKERELVAAISRRGDRTYYADSVKGRFTISRDNAKNTVYLQMNSLKPADTAVYSCNARRAPPLPYYYWGQGTQVTVSS | high polyreactivity |
| QVQLVESGGGLVQAGGSLRLSCAASGSNFTSYAMGWYRQAPGKERELVAAITRGGRTYYADSVKGRFTISRDNAKNTVYLQMNSLKPEDTAVFYCNAPGYRGYEYWGQGTQVTVSS | high polyreactivity |
| QVQLVESGGGLVQAGGSLRLSCAASGSNFTTYSMGWYRQATGKERELVAASTSGSSTNYADSVKGRFTISRDNAKNTVYLQMNSLKPEDTAVYYCAVDREWPCYYYAMSKMYYWGQGTQVTVSS | low polyreactivity |
| QVQLVESGGGLVQAGGSLRLSCAASGSNFVGYAMGWYRQAPGKERELVAGITASGTNTYYADSVKGRFTISRDNAKNTVYLQMNSLKPEDTAVYYCAAESNRRFEGEYWGQGTQVTVSS | high polyreactivity |
| QVQLVESGGGLVQAGGSLRLSCAASGSNFVLYAMGWYRQAPGKESELVAAISSSGGSTYADSVKGRFTISRDNAKNTVYLQMNSLKPEDTAVYYCARDVYLSDPPRDYDYWGQGTQVTVSS | low polyreactivity |
| QVQLVESGGGLVQAGGSLRLSCAASGSNFVRNVMGWYRQAPGKERELVAGISWNGGSTFYADSVKGRFTISRDNAKNTVYLQMNCLKPEDTAVYYCATPYGRHGWFYLYDYWGQGTLVTVSS | low polyreactivity |
| QVQLVESGGGLVQAGGSLRLSCAASGSNFVTNAMGWYRQAPGKERELVAAISVSGGSTYYADSVKGRFTFSRDNAKNTVYLQMNSLKPEDTEVYYCAADGFIGCRHIYEYWGQGTQVTVSS | low polyreactivity |
| QVQLVESGGGLVQAGGSLRLSCAASGSNFVYNAMGWYRQAPGKERELVAAISGSGDSTYYADSVKGRFTISRDNAKNTVYLQMNSLKPEDTAVYYCAARMSTADFYKGDYWGQGTQVTVSS | low polyreactivity |
| QVQLVESGGGLVQAGGSLRLSCAASGSNKQNAMGWYRQSPGKERELLARISKYGGSTYADSVKGRFTISRDNAKNTVYLQMNSLKPEDTAVYYCNAVKRDRNHHATKCEYAYWGQGTPVTVSS | low polyreactivity |
| QVQLVESGGGLVQAGGSLRLSCAASGSNLSAYAMGWYRQAPGKERELVAAISWSGGSTYYADSVKGRFTISRDNAKNTVYFQMNSLKPEDTAVYYCATVNKKWRRYDYWGQGSQVTVSS | high polyreactivity |
| QVQLVESGGGLVQAGGSLRLSCAASGSPVSRYALGWYRQAPGKERELVAAFSWGGNTYYADSVKGRFTISRDNAKNTVYLQMKSLKPEDTAVYYCNRYSKLYNTMDYWGQGTQVTVSS | high polyreactivity |
| QVQLVESGGGLVQAGGSLRLSCAASGSRNAMGWYRQAPGKESEFVAAITWNGGSTYYADSVKGRFTISRDNAKNTVYLQMNSLKPEDTAVYYCNKREVFIYGTTYDYWRQGTQVTVSS | low polyreactivity |
| QVQLVESGGGLVQAGGSLRLSCAASGSSFAKYAMGWYRQAPGKERELVATISWSGTSTYYADSVKGRFTISRDNAKNTVYLQMNSLKPEDTAVYYCDADTECVGVNHIYDYWGQGNQVTVSS | low polyreactivity |
| QVQLVESGGGLVQAGGSLRLSCAASGSSFDIYVMGWYRQAPGKERELLAAISRVGNTSYADSVKGRFTISRDNGKNTVYLQMNKHETGIYRGHYCGAGLVGAGYITYNDYDYWGQGTQVSVSS | low polyreactivity |
| QVQLVESGGGLVQAGGSLRLSCAASGSSFDPYAMGWYRQAPGKERELVATITYSGGRTYYADSVKGRFTISRDNAKNTVYLQMNSLKPEDTAVYYCAADWDPGYYVQYGYDYWGQGTQVTVSS | low polyreactivity |
| QVQLVESGGGLVQAGGSLRLSCAASGSSFRIYAMGWYRQAPGKERELVAAISWSSGSTYYADSVKGRFTISRDNAKNTDYLPMNSLKPEDTAVYYCATYARRSGYYYWGQGTQVTVSS | high polyreactivity |
| QVQLVESGGGLVQAGGSLRLSCAASGSSFRRYAMGWYRQAPGKERELVATIRSGGSTTYADSVKGRFTISRDNAKNTVYLQMNSLKPEDTAVYFFAAGTKPSYYYWGQGTQVTVSS | low polyreactivity |
| QVQLVESGGGLVQAGGSLRLSCAASGSSFRSNDMGWYRQAPGKERELVARITSSVGSTYYADSVKGRFTISRDNAKNTVYLQMNSLKPEDTAVYYCAKRYYHYPYGYRDYDYWGQGTQVTVSS | low polyreactivity |
| QVQLVESGGGLVQAGGSLRLSCAASGSSFSSYAMGWYRQAPGKERELVASISRRGGSTYYADSVKGRFTISRDNAKNTGYLQMNSLNPEDTAVYYCNAPYAGMGYWGQGTQVTVSS | low polyreactivity |
| QVQLVESGGGLVQAGGSLRLSCAASGSSKLRLWDGIDRRLGQKGSWLPLFVLVVLRNYADSVKGRFTISSDNAKNTVYLQMNSLKPEDTAVYYCAATPIGSGGWGDYWGQGTQVTVSS | low polyreactivity |
| QVQLVESGGGLVQAGGSLRLSCAASGSSLTYNAMGWYRQAPGKERELVAVISARGGRTYYADSVKGRFTISRDNAKNTVYLQMNSLKPEDTAVYYCAAVFYYSYYRITSGDYWGQGTQVTVSS | high polyreactivity |
| QVQLVESGGGLVQAGGSLRLSCAASGSTCGTYAMGWYRQAPGKERELVATISLSGGSTYYADSVKGRFTISRDNAKNTVYLQMNSLKPEDTAVYYCTVKSSYSEYDYWGQGTQVTVSS | low polyreactivity |

| Sequence | polyreactivity (PSR sort gate) |
| --- | --- |
| QVQLVESGGGLVQAGGSLRLSCAASGSTCSRNAMGWYRQAPGKERELVAAINYSGGITYYADSVKGRFTISRDNAKNTVYLQMNSLKPEDTAVYYGAAVATNVPTHGRPSRRAYDYWGQGTQVTVSS | low polyreactivity |
| QVQLVESGGGLVQAGGSLRLSCAASGSTCWSNAMGWYRQAPGKERELVAGISWSDGSTYADSVKGRFTISRDNAKNTVYLQMNSLKPEDTAVYYCAAADNYRGYTYEYDYWGQGTQVTVSS | low polyreactivity |
| QVQLVESGGGLVQAGGSLRLSCAASGSTFAANAMGWYRQAPGKERELFAVIRRGGSTTYADSVKGRFTISRDNAKNTVYLQMNSLKPEDTEVYYCNARVTLGRPLFTYLVRYEYWGQGTQVTVSS | high polyreactivity |
| QVQLVESGGGLVQAGGSLRLSCAASGSTFAANAMGWYRQAPGKERELVAAITSSGGSTYYADSVKGRFTISLDNEKNTVYLQMNSLKPEDTAVYYCNKDIERYVRIYDSWGQGTQVTVSS | low polyreactivity |
| QVQLVESGGGLVQAGGSLRLSCAASGSTFADNAMGWYRQAPGKERELVATITDGGSTNYADSVKGRFTISRDNAKNTVYLQMNSLKPEDTAVYYCNADTHARWTGVKGTYSDYDYWGQGTQVTVSS | low polyreactivity |
| QVQLVESGGGLVQAGGSLRLSCAASGSTFADYVMGWYRQAPGKERELVAAISRSGGSTYYADSEKGRFTISRDTAKNTVYLQTNSLKPEDTAVYYCAAVKARRYDYWGQGTQVTVSS | high polyreactivity |
| QVQLVESGGGLVQAGGSLRLSCAASGSTFAFNAMGWYRHAPGKERELVATISQSGGSTYYADSVKGRFTFSRDNAKNTVYLQKNSLKPEDTSVYYCAKRYWSKWYGRYDYWRQGTQVTVSS | low polyreactivity |
| QVQLVESGGGLVQAGGSLRLSCAASGSTFAFNAMGWYRQAPGKERELVATISQSGGSTYYADSVKGRFTISRDNAKNTVYLQMNSLKPEDTAVYYCAKRYWSKWYGRYEYWGQGTQVTVSS | low polyreactivity |
| QVQLVESGGGLVQAGGSLRLSCAASGSTFAFYDMGWYRQAPGKERELVAAISQSDGDTYYADSVKGRFTISRDNAKNTVYLQMNSLKPEDTAVYYCAAETSHNPEYERGSDYWGQGTQVTVSS | low polyreactivity |
| QVQLVESGGGLVQAGGSLRLSCAASGSTFAGNAMGWYRQAPGKERELVAGITSSGARTYYADSVKGRFTISRDNAKNTVYLQMNSLKPEDTAVYYCNKYHFSPYDYWGQGTQVTVSS | high polyreactivity |
| QVQLVESGGGLVQAGGSLRLSCAASGSTFAGYAMGWYRQAPGKERELVAAISKRGTSTYYADSVKGRFTISRDNAKNTVYLQMNSLKPEDTAVYYCAARTYASYFKLYYWGQGTQVTVSS | high polyreactivity |
| QVQLVESGGGLVQAGGSLRLSCAASGSTFAHNAMGWYRQAPGKERELVAAISRRGGSTYYADSVKGRFTISRDNAQNTVYLQMNSLKPEDTAVYYCNAVAHNVRVYRFYPGWAGLDYWGQGTQVTVSS | high polyreactivity |
| QVQLVESGGGLVQAGGSLRLSCAASGSTFAHNAMGWYRQAPGKERELVATISGSGGTTRYADSVKGRFTISRDNAKNTVYLQMNSLKPEDTAGYYCAAQSSTPKLYDYWGQGTQVTVSS | low polyreactivity |
| QVQLVESGGGLVQAGGSLRLSCAASGSTFAHYAMGWYRQAPGKERELVAAITTSGSSTYYADSVKGRFTISRDNAKNTVYLQMNSLKPEDTAVYYCNARGSYYHYRGERNYWGQGTQVTVSS | low polyreactivity |
| QVQLVESGGGLVQAGGSLRLSCAASGSTFAKNAMGLYRQAPGKERELVAAISRGGNTYYADSVKGRFTISRDNAKNTVYLQMNSLKPEDTAVYYCAKLPYTRNYLGSLYDYWGQCTQVTVSS | high polyreactivity |
| QVQLVESGGGLVQAGGSLRLSCAASGSTFAKNTMGWYRQAPGKERELVAAISTSGGSTYYADSVKVRFTISRDNAKNTVYLQMNSLKPEDTAVYYCAARAFQYYRAMDYWGQGTQVTVSS | low polyreactivity |
| QVQLVESGGGLVQAGGSLRLSCAASGSTFAKYAMGWYRQAPGKERELVASIRLSGGSTYYADSVKGRFTISRDNAKNTVYLQMNSLKPEDTALYYCHKQFATFFYGFDYYYWGQGTQVTVSS | low polyreactivity |
| QVQLVESGGGLVQAGGSLRLSCAASGSTFAKYTMGWYRQAPGKERELVAAISQRGGSTYYADSVKGRFTISRDNAKNTVYLQMNSLKPEDTAVYYCNVRAYAWRYEYWGQGTQVTVSS | high polyreactivity |
| QVQLVESGGGLVQAGGSLRLSCAASGSTFALYAMGGSRPAPGKERELVAVINSGGSTYYADSVKGRFTISRDNAKNTVYLLMNSLKPEDTAVSYCATVYVWAYRGTDSSYRFDYWGKGTQVTVSS | low polyreactivity |
| QVQLVESGGGLVQAGGSLRLSCAASGSTFALYAMGWSRPAPGKERELVAAITWSGTGTYYADSVKGRFTISRDNAKNTVYLQMNSLKPEDTAVYYCNAEYWWWGLGNDYWGQGTQVTVSS | low polyreactivity |
| QVQLVESGGGLVQAGGSLRLSCAASGSTFALYGMGWYRQAPGKERELVAAINSGVSTNYADSVKGRFTISRDNAKNTVYLQMNSLKPEDTAVYYCNADYYIAPYDSWGQGTQVTVSS | low polyreactivity |
